# Assay results: patent publication US20240101645A1 (HENRY M JACKSON FOUNDATION FOR THE ADVANCEMENT OF MILITARY …, published 2024)
# T1: HCoV-NL63 spike antigens (bead panel) (HCoV-NL63, UniProt Q6Q1S2 19-1296)
# T1 sequence: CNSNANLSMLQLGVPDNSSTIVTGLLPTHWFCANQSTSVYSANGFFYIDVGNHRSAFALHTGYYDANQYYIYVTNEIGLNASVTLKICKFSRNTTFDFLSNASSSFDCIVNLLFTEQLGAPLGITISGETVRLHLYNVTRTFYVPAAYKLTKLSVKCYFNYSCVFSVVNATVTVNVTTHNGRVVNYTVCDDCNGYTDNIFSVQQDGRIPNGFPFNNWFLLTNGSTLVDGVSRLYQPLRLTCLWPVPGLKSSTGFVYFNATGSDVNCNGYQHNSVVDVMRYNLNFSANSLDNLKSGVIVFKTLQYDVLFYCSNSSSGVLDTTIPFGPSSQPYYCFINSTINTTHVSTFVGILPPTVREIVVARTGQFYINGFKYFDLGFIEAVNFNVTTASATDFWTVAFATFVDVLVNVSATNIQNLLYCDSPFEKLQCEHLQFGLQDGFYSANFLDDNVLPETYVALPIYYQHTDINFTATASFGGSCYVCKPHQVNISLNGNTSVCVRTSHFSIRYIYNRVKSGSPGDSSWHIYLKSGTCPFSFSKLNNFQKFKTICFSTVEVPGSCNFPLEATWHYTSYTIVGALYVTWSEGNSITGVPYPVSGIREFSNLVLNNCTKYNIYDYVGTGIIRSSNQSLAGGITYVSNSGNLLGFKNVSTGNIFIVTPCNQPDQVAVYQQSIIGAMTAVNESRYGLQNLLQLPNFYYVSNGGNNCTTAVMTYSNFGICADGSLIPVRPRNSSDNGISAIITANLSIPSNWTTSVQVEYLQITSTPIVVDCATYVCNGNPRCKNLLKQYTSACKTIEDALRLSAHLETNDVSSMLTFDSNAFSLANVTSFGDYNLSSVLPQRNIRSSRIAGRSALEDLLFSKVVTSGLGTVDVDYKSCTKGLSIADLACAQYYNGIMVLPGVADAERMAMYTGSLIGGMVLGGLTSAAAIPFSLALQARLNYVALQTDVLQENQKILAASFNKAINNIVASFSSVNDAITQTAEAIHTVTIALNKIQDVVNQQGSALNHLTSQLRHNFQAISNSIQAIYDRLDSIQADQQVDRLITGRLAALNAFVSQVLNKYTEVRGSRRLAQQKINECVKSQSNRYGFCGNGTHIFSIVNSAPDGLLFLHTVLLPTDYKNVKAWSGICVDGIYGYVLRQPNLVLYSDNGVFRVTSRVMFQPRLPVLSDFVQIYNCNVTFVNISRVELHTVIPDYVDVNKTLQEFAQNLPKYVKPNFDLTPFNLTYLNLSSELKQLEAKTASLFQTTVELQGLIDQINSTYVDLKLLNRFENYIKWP
# T2: HCoV-OC43 spike antigens (bead panel) (HCoV-OC43, UniProt P36334 14-1297)
# T2 sequence: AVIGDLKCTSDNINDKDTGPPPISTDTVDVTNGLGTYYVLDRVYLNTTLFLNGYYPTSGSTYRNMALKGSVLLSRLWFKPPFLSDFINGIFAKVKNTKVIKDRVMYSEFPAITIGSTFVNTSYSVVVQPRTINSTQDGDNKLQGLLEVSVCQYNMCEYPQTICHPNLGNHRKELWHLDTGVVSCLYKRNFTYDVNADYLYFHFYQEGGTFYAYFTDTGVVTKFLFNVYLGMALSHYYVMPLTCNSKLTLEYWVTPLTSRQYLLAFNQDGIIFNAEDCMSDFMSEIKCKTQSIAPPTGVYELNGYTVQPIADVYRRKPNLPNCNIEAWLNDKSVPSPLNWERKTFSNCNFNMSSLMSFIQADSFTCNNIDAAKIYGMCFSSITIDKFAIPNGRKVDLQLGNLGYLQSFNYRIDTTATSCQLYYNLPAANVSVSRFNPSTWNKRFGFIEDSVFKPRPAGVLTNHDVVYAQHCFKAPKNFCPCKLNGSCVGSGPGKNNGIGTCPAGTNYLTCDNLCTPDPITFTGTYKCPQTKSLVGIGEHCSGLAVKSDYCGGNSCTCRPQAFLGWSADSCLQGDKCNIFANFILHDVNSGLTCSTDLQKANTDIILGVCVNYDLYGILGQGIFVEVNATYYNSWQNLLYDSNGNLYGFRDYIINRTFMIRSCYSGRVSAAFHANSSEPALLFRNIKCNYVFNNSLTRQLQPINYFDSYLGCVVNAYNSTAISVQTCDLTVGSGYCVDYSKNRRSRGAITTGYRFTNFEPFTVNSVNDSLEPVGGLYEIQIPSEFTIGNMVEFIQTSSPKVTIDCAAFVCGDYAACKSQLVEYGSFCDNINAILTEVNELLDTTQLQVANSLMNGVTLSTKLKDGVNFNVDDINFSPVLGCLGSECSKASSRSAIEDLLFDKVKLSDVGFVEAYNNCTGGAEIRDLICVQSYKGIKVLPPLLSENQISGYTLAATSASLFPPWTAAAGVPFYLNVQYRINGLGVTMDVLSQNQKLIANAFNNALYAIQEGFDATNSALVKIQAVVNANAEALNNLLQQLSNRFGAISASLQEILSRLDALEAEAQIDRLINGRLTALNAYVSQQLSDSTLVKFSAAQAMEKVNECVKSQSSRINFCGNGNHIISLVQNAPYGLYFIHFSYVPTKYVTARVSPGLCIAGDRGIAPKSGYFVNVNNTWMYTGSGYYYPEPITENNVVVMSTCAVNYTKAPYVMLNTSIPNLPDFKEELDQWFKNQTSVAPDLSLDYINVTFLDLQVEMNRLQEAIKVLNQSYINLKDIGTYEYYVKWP
# What was measured:
# [1] = target: T1, HCoV-NL63 spike antigens (bead panel); assay: multiplex bead assay
# [2] = target: T2, HCoV-OC43 spike antigens (bead panel); assay: multiplex bead assay
Binder,binding result [1],binding result [2]
"COV_2032 (antibody, V domains shown, human IgG1) VH: EVQLVESGGGLVQPGGSLRLSCAASGFTFTTYWMHWVRQAPGKGLVWVSRIKTDGSSTNYADSVKGRFTISRDNAKNMLYLQMNSLRAEDTAVYYCAREGPVSIVYFDYWGQGTLVTVSS VL: not shown",no binding,no binding
"COV_2125 (antibody, V domains shown, human IgG1) VH: EVQLVESGGGVVQPGRSLRLSCAASGFTFSSYGMHWVRQAPGKGLEWVAVISYDGSNKYYADSVKGRFTISRDNSKNTLSLQMNSLRPEDTAVYYCAKDSPYYYDSSGYYPGYFQDWGQGSLVTVSS VL: DIQMTQSPSSLSASIGDRVTITCRASQTISDYLNWYQQKPGKAPNLLIYAASTLQSGVPSRFSGSGSGTDFTLTISSLQPEDFATYYCQQSYITPRTFGQGTKVEIK",no binding,no binding
"COV_1177 (antibody, V domains shown, human IgG1) VH: QVQLVESGGGVVQPGRSLRLSCAASGFTFSSYGMHWVRQAPGKGLEWVAVIWYDGSNKYYADSVKGRFTISRDNSKNTLYLQMNSLRAEDTAVYYCARDPLGAVAGYFDYWGQGTLVTVSS VL: SYVLTQPPSVSVAPGQTARITCGGNNIGSKSVHWYQQKPGQAPVLVVYDDSDRPSGIPERFSGSNSGNTATLTISRVEAGDEADYYCQVWDSSSDHHWVFGGGTKLTVLG",no binding,no binding
"COV_2169 (antibody, V domains shown, human IgG1) VH: EVQLVESGGGVVQPGRSLRLSCAASGFTFSRYAMHWVRQAPGKGLEWVAVISYEGSNKYYADSVKGRFTISRNNSNNTLSLQMNSLRPDDTAVYYCVRSGGHYFDAFDLWGQGTMVTVSS VL: EIVLTQSPGTLSLSPGERATLSCRASQSVSRNYVAWYQQKPGQAPRLLIYGASSRATGIPDRFSGSGSGTDFTLTISRLEPEDFALYYCQQYGSSYTFGQGTKLEIKR",no binding,no binding
"COV_3069 (antibody, V domains shown, human IgG1) VH: EVQLVESGGGLVKPGGSLRLSCAASGFTFGSYTMNWVRQAPGKGLEWVSSIDTTSSSIYYADSLKGRFAISRDSAKNSLYLQMNRLRAEDTAVYYCARGNGHSYDSSGYHYGMYFDYWGQGTLVTVSS VL: DIQMTQSPSTLSASVGDRVTITCRASQSISRWLAWYQQKPGKAPKLLIYEVSSLENGVPSRFSGSRSGTEFTLTISSLQPDDFAIYYCQQYNTYSRTFGQGTKVEIKR",no binding,no binding
"COV_1184 (antibody, V domains shown, human IgG1) VH: QVQLQQWGAGLLKPSETLSLTCAVYGGSFSGYYWSWIRQPPGKGLEWIGEINHSGNTTYNPSLKSRVTISVDTSKNQFSLKLSSVTAADTAVYYCARGLVITYYYDSSGKPFDPWGQGTLVTVSS VL: not shown",no binding,no binding
"COV_2205 (antibody, V domains shown, human IgG1) VH: EVQLVESGGGLVKPGGSLRLSCAASGFTFSDYYMIWIRQAPGEGLEWVSYISSRSSYTNYADSVKGRFTISRDNARNSLYLQMNSLRAEDTAVYYCARGQHDLLTGYYSWAYFDYWGQGTLVTVSS VL: not shown",no binding,no binding
"COV_3129 (antibody, V domains shown, human IgG1) VH: QVQLQQWGAGLLKPSDTLSLTCAANGGGSFSGYYLGYIRQSPGKGLEWIGEINHNGGTNYNPSLKSRVTISGDTSKNQFSLKLSSVTAADTAIYYCARSRDSSLGDAVWYEYWGQGTLITVSS VL: EIVLTQSPATLSLSPGERATLSCRASQSVDIYLAWYQQRPGQAPRLLISDASKRATGVPARFSGSGSGTDFTLTINSLEPEDFAIYYCQQRRDWPINFGQGTRLEIKR",no binding,no binding
"COV_1154 (antibody, V domains shown, human IgG1) VH: EVQLVESGGGLVKPGGSLRLSCAASGFRFSDYNMNWVRQAPGKGLEWVSYISSSSSYIYYADSVKGRFTISRDNAKNSLYLQMNSLRGEDTAVYSCAREASGAYYFDRSGYFDYWGQGTLVTVSP VL: DIQMTQSPSTLSASVGDRVTITCRASQSISSWLAWYQQKPGKAPNLLIYKASSLESGVPSRFSGSGSGTEFTLTISSLQPYDFATYYCQQYNSYPWAFGQGTKVEMKR",no binding,no binding
"COV_1145 (antibody, V domains shown, human IgG1) VH: QVQLVESGGGVVQPGRSLRLSCAASGFTFSSYGMHWVRQAPGKGLEWVAVIWYDGSNKYYADSVKGRFTISRDNSKNTLYLQMNSLRVEDTAVYYCAREGQLGATGLDCWGQGTLVSVSS VL: SYELTQPPSVSVSPGQTARITCSGDALPKKYAYWYQQKSGQAPVLVIYEDSKRPSGIPERFSGSSSGTMATLTISGAQVEDEADYYCYSTDNSGNHWVFGGGTKLTVLG",no binding,no binding
"COV_2215 (antibody, V domains shown, human IgG1) VH: EVQLVESGGGLVKPGGSLRLSCAASGFTFSHAWMSWVRQAPGKGLEWVGRIKSKTDGGTADYAAPVKGRFTISRDDSKNTLYLQMNSLKTEDTAVYYCATIRYYYDSSAYLNDAFDIWGQGTMVTVSS VL: SYELTQPPSVSVSPGQTARITCSGDALPKKYAYWYQQKSGQAPVLVIYEDSKRPSGIPERFSGSSSGTMATLTISGAQVEDEADYYCYSTDSSGNHRVFAGGTKLTVLG",no binding,no binding
